Where no end group is shown, it is not given here. bis‑dPEG6 = hexa-ethylene glycol bifunctional linker (bis-dPEG6 NHS ester)
Columns and labels:
[1] = target: T1, 33-mer gliadin peptide (non-deamidated, α2-gliadin residues 57-89)
T1 chain: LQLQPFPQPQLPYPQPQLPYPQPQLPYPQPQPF

[2] = target: soluble HLA-DQ2 heterodimer (purified, thrombin-treated DQ2-ligand fusion protein) (human); test: peptide exchange kinetics (HPSEC, fluorescein-labelled peptide, soluble DQ2), pH 7.3
[3] = target: soluble HLA-DQ2 heterodimer (purified, thrombin-treated DQ2-ligand fusion protein) (human); test: peptide exchange kinetics (HPSEC, fluorescein-labelled peptide, soluble DQ2)
[4] = target: soluble HLA-DQ2 heterodimer (purified, thrombin-treated DQ2-ligand fusion protein) (human); test: peptide exchange assay (HPSEC, fluorescein-labelled peptide 0.18 µM, soluble DQ2 4.7 µM, 37 C, 45 h), pH 5.5

B1: human tissue transglutaminase (tTGase) (protein)
chain: AEELVLERCDLELETNGRDHHTADLCREKLVVRRGQPFWLTLHFEGRNYEASVDSLTFSVVTGPAPSQEAGTKARFPLRDAVEEGDWTATVVDQQDCTLSLQLTTPANAPIGLYRLSLEASTGYQGSSFVLGHFILLFNAWCPADAVYLDSEEERQEYVLTQQGFIYQGSAKFIKNIPWNFGQFEDGILDICLILLDVNPKFLKNAGRDCSRRSSPVYVGRVVSGMVNCNDDQGVLLGRWDNNYGDGVSPMSWIGSVDILRRWKNHGCQRVKYGQCWVFAAVACTVLRCLGIPTRVVTNYNSAHDQNSNLLIEYFRNEFGEIQGDKSEMIWNFHCWVESWMTRPDLQPGYEGWQALDPTPQEKSEGTYCCGPVPVRAIKEGDLSTKYDAPFVFAEVNADVVDWIQQDDGSVHKSINRSLIVGLKISTKSVGRDEREDITHTYKYPEGSSEEREAFTRANHLNKLAEKEETGMAMRIRVGQSMNMGSDFDVFAHITNNTAEEYVCRLLLCARTVSYNGILGPECGTKYLLNLNLEPFSEKSVPLCILYEKYRDCLTESNLIKVRALLVEPVINSYLLAERDLYLENPEIKIRILGEPKQKRKLVAEVSLQNPLPVALEGCTFTVEGAGLTEEQKTVEIPDPVEAGEEVKVRMDLLPLHMGLHKLVVNFESDKLKAVKGFRNVIIGPA
[1]
  kcat/KM of deamidation: kcat/KM=440 min-1 mM-1

## {5(6)‑carboxyfluorescein}-LQLQPFPQPELPYPQPELPYPQPELPYPQPQPF (not fully specified) [33-mer peptide 1 (deamidated 33-mer from α2-gliadin)]
[2]
  maximum occupancy: 28%
[3]
  time to half maximal DQ2 occupancy: 8 h

## {5(6)‑carboxyfluorescein}-PQPELPYPQ (not fully specified) [peptide 3 (minimal αII epitope)]
[4]
  binding maximum (DQ2 bound peptide as a percentage of total peptide): 7%

B2: dimeric peptide 22 (two copies of L11K peptide 17 crosslinked through the Lys side chains by a hexa-ethylene glycol bifunctional linker) (peptide)
peptide: {5‑(and 6-)carboxyfluorescein}-LQLQPFPQPEK(bis‑dPEG6)PYPQPELPY
modifications: also: dimer: two copies crosslinked through Lys11 side chains via hexa-ethylene glycol linker
[2]
  maximum occupancy: 40%
[3]
  time to half maximal DQ2 occupancy: 2.5 h

Source: patent US20090156490A1
